Measurements as given in the Human Domainome abundance scans (Beltran et al. 2025).
± gives the uncertainty stated by the source.

B1: Peroxisome proliferator-activated receptor delta, residues 71 to 145; numbered along this chain, Q03181 (parent)
chain: NMECRVCGDKASGFHYGVHACEGCKGFFRRTIRMKLEYEKCERSCKIQKKNRNKCQYCRFQKCLALGMSHNAIRF

Variants of: B1
Experiment: abundance fitness (aPCA) (normalised: wild type 0, dead -1); higher = more abundant; growth selection in yeast, the domain comes from the species named
Settings: Homo sapiens

Variant	abundance fitness
NMECRVCGDKASGFHYGVHACEGCKGFFRRTIRMKLEYEKCERSCKNQKKNRNKCQYCRFQKCLALGMSHNAIRF [I47N]	-0.4 ± 0.098
NMECRVCGDKASGFHYGVHACEGCKGFFRRTIRMKLEYEKCERSCKSQKKNRNKCQYCRFQKCLALGMSHNAIRF [I47S]	-0.287 ± 0.038
NMECRVCGDKASGFHYGVHACEGCKGFFRRTIRMKLEYEKCERSCKHQKKNRNKCQYCRFQKCLALGMSHNAIRF [I47H]	-0.589 ± 0.1
NMECRVCGDKASGFHYGVHACEGCKGFFRRTIRMKLEYEKCERSCKGQKKNRNKCQYCRFQKCLALGMSHNAIRF [I47G]	-0.269 ± 0.025
NMECRVCGDKASGFHYGVHACEGCKGFFRRTIRMKLEYEKCERSCKCQKKNRNKCQYCRFQKCLALGMSHNAIRF [I47C]	-0.51 ± 0.062
NMECRVCGDKASGFHYGVHACEGCKGFFRRTIRMKLEYEKCERSCKRQKKNRNKCQYCRFQKCLALGMSHNAIRF [I47R]	-0.502 ± 0.034
NMECRVCGDKASGFHYGVHACEGCKGFFRRTIRMKLEYEKCERSCKYQKKNRNKCQYCRFQKCLALGMSHNAIRF [I47Y]	-0.419 ± 0.11
NMECRVCGDKASGFHYGVHACEGCKGFFRRTIRMKLEYEKCERSCKMQKKNRNKCQYCRFQKCLALGMSHNAIRF [I47M]	-0.132 ± 0.044
NMECRVCGDKASGFHYGVHACEGCKGFFRRTIRMKLEYEKCERSCKFQKKNRNKCQYCRFQKCLALGMSHNAIRF [I47F]	-0.246 ± 0.074
NMECRVCGDKASGFHYGVHACEGCKGFFRRTIRMKLEYEKCERSCKKQKKNRNKCQYCRFQKCLALGMSHNAIRF [I47K]	-0.453 ± 0.061
NMECRVCGDKASGFHYGVHACEGCKGFFRRTIRMKLEYEKCERSCKWQKKNRNKCQYCRFQKCLALGMSHNAIRF [I47W]	-0.316 ± 0.034
NMECRVCGDKASGFHYGVHACEGCKGFFRRTIRMKLEYEKCERSCKVQKKNRNKCQYCRFQKCLALGMSHNAIRF [I47V]	0.004 ± 0.027
NMECRVCGDKASGFHYGVHACEGCKGFFRRTIRMKLEYEKCERSCKTQKKNRNKCQYCRFQKCLALGMSHNAIRF [I47T]	-0.253 ± 0.048
NMECRVCGDKASGFHYGVHACEGCKGFFRRTIRMKLEYEKCERSCKDQKKNRNKCQYCRFQKCLALGMSHNAIRF [I47D]	-0.126 ± 0.054
NMECRVCGDKASGFHYGVHACEGCKGFFRRTIRMKLEYEKCERSCKEQKKNRNKCQYCRFQKCLALGMSHNAIRF [I47E]	-0.235 ± 0.035
NMECRVCGDKASGFHYGVHACEGCKGFFRRTIRMKLEYEKCERSCKIQEKNRNKCQYCRFQKCLALGMSHNAIRF [K49E]	0.144 ± 0.15
NMECRVCGDKASGFHYGVHACEGCKGFFRRTIRMKLEYEKCERSCKIQHKNRNKCQYCRFQKCLALGMSHNAIRF [K49H]	0.602 ± 0.38
NMECRVCGDKASGFHYGVHACEGCKGFFRRTIRMKLEYEKCERSCKIQMKNRNKCQYCRFQKCLALGMSHNAIRF [K49M]	-0.065 ± 0.17
NMECRVCGDKASGFHYGVHACEGCKGFFRRTIRMKLEYEKCERSCKIQSKNRNKCQYCRFQKCLALGMSHNAIRF [K49S]	-0.207 ± 0.41
NMECRVCGDKASGFHYGVHACEGCKGFFRRTIRMKLEYEKCERSCKIQAKNRNKCQYCRFQKCLALGMSHNAIRF [K49A]	0 ± 0.15
NMECRVCGDKASGFHYGVHACEGCKGFFRRTIRMKLEYEKCERSCKIQGKNRNKCQYCRFQKCLALGMSHNAIRF [K49G]	0.202 ± 0.13
NMECRVCGDKASGFHYGVHACEGCKGFFRRTIRMKLEYEKCERSCKIQFKNRNKCQYCRFQKCLALGMSHNAIRF [K49F]	-0.045 ± 0.22
NMECRVCGDKASGFHYGVHACEGCKGFFRRTIRMKLEYEKCERSCKIQLKNRNKCQYCRFQKCLALGMSHNAIRF [K49L]	0.066 ± 0.26
NMECRVCGDKASGFHYGVHACEGCKGFFRRTIRMKLEYEKCERGCKIQKKNRNKCQYCRFQKCLALGMSHNAIRF [S44G]	0.055 ± 0.03
NMECRVCGDKASGFHYGVHACEGCKGFFRRTIRMKLEYEKCERKCKIQKKNRNKCQYCRFQKCLALGMSHNAIRF [S44K]	0.12 ± 0.051

Variant	abundance fitness
NMECRVCGDKASGFHYGVHACEGCKGFFRRTIRMKLEYEKCERMCKIQKKNRNKCQYCRFQKCLALGMSHNAIRF [S44M]	0.028 ± 0.047
NMECRVCGDKASGFHYGVHACEGCKGFFRRTIRMKLEYEKCERLCKIQKKNRNKCQYCRFQKCLALGMSHNAIRF [S44L]	-0.038 ± 0.037
NMECRVCGDKASGFHYGVHACEGCKGFFRRTIRMKLEYEKCERFCKIQKKNRNKCQYCRFQKCLALGMSHNAIRF [S44F]	-0.005 ± 0.074
NMECRVCGDKASGFHYGVHACEGCKGFFRRTIRMKLEYEKCERVCKIQKKNRNKCQYCRFQKCLALGMSHNAIRF [S44V]	-0.086 ± 0.039
NMECRVCGDKASGFHYGVHACEGCKGFFRRTIRMKLEYEKCERTCKIQKKNRNKCQYCRFQKCLALGMSHNAIRF [S44T]	-0.049 ± 0.05
NMECRVCGDKASGFHYGVHACEGCKGFFRRTIRMKLEYEKCERRCKIQKKNRNKCQYCRFQKCLALGMSHNAIRF [S44R]	-0.05 ± 0.032
NMECRVCGDKASGFHYGVHACEGCKGFFRRTIRMKLEYEKCERWCKIQKKNRNKCQYCRFQKCLALGMSHNAIRF [S44W]	-0.314 ± 0.058
NMECRVCGDKASGFHYGVHACEGCKGFFRRTIRMKLEYEKCERYCKIQKKNRNKCQYCRFQKCLALGMSHNAIRF [S44Y]	0.061 ± 0.058
NMECRVCGDKASGFHYGVHACEGCKGFFRRTIRMKLEYEKCERICKIQKKNRNKCQYCRFQKCLALGMSHNAIRF [S44I]	-0.212 ± 0.091
NMECRVCGDKASGFHYGVHACEGCKGFFRRTIRMKLEYEKCERHCKIQKKNRNKCQYCRFQKCLALGMSHNAIRF [S44H]	0.073 ± 0.065
NMECRVCGDKASGFHYGVHACEGCKGFFRRTIRMKLEYEKCERPCKIQKKNRNKCQYCRFQKCLALGMSHNAIRF [S44P]	-0.134 ± 0.058
NMECRVCGDKASGFHYGVHACEGCKGFFRRTIRMKLEYEKCERQCKIQKKNRNKCQYCRFQKCLALGMSHNAIRF [S44Q]	0.069 ± 0.049
NMECRVCGDKASGFHYGVHACEGCKGFFRRTIRMKLEYEKCERSCTIQKKNRNKCQYCRFQKCLALGMSHNAIRF [K46T]	0.05 ± 0.046
NMECRVCGDKASGFHYGVHACEGCKGFFRRTIRMKLEYEKCERSCHIQKKNRNKCQYCRFQKCLALGMSHNAIRF [K46H]	0.047 ± 0.068
NMECRVCGDKASGFHYGVHACEGCKGFFRRTIRMKLEYEKCERSCQIQKKNRNKCQYCRFQKCLALGMSHNAIRF [K46Q]	0.106 ± 0.047
NMECRVCGDKASGFHYGVHACEGCKGFFRRTIRMKLEYEKCERSCLIQKKNRNKCQYCRFQKCLALGMSHNAIRF [K46L]	0.022 ± 0.033
NMECRVCGDKASGFHYGVHACEGCKGFFRRTIRMKLEYEKCERSCFIQKKNRNKCQYCRFQKCLALGMSHNAIRF [K46F]	0.015 ± 0.052
NMECRVCGDKASGFHYGVHACEGCKGFFRRTIRMKLEYEKCERSCEIQKKNRNKCQYCRFQKCLALGMSHNAIRF [K46E]	0.124 ± 0.04
NMECRVCGDKASGFHYGVHACEGCKGFFRRTIRMKLEYEKCERSCCIQKKNRNKCQYCRFQKCLALGMSHNAIRF [K46C]	-0.046 ± 0.052
NMECRVCGDKASGFHYGVHACEGCKGFFRRTIRMKLEYEKCERSCIIQKKNRNKCQYCRFQKCLALGMSHNAIRF [K46I]	0.12 ± 0.068
NMECRVCGDKASGFHYGVHACEGCKGFFRRTIRMKLEYEKCERSCVIQKKNRNKCQYCRFQKCLALGMSHNAIRF [K46V]	0.023 ± 0.032
NMECRVCGDKASGFHYGVHACEGCKGFFRRTIRMKLEYEKCERSCMIQKKNRNKCQYCRFQKCLALGMSHNAIRF [K46M]	0.066 ± 0.047
NMECRVCGDKASGFHYGVHACEGCKGFFRRTIRMKLEYEKCERSCDIQKKNRNKCQYCRFQKCLALGMSHNAIRF [K46D]	0.142 ± 0.04
NMECRVCGDKASGFHYGVHACEGCKGFFRRTIRMKLEYEKCERSCRIQKKNRNKCQYCRFQKCLALGMSHNAIRF [K46R]	-0.037 ± 0.029
NMECRVCGDKASGFHYGVHACEGCKGFFRRTIRMKLEYEKCERSCYIQKKNRNKCQYCRFQKCLALGMSHNAIRF [K46Y]	-0.051 ± 0.07

Variant	abundance fitness
NMECRVCGDKASGFHYGVHACEGCKGFFRRTIRMKLEYEKCERSCSIQKKNRNKCQYCRFQKCLALGMSHNAIRF [K46S]	0.006 ± 0.038
NMECRVCGDKASGFHYGVHACEGCKGFFRRTIRMKLEYEKCERSCWIQKKNRNKCQYCRFQKCLALGMSHNAIRF [K46W]	-0.153 ± 0.043
NMECRVCGDKASGFHYGVHACEGCKGFFRRTIRMKLEYEKCERSCAIQKKNRNKCQYCRFQKCLALGMSHNAIRF [K46A]	0.007 ± 0.034
NMECRVCGDKASGFHYGVHACEGCKGFFRRTIRMKLEYEKCERSCPIQKKNRNKCQYCRFQKCLALGMSHNAIRF [K46P]	0.037 ± 0.044
NMECRVCGDKASGFHYGVHACEGCKGFFRRTIRMKLEYEKCERSCNIQKKNRNKCQYCRFQKCLALGMSHNAIRF [K46N]	0.029 ± 0.067
NMECRVCGDKASGFHYGVHACEGCKGFFRRTIRMKLEYEKCERSLKIQKKNRNKCQYCRFQKCLALGMSHNAIRF [C45L]	-0.766 ± 0.1
NMECRVCGDKASGFHYGVHACEGCKGFFRRTIRMKLEYEKCERSEKIQKKNRNKCQYCRFQKCLALGMSHNAIRF [C45E]	-0.838 ± 0.1
NMECRVCGDKASGFHYGVHACEGCKGFFRRTIRMKLEYEKCERSMKIQKKNRNKCQYCRFQKCLALGMSHNAIRF [C45M]	-0.548 ± 0.11
NMECRVCGDKASGFHYGVHACEGCKGFFRRTIRMKLEYEKCERSVKIQKKNRNKCQYCRFQKCLALGMSHNAIRF [C45V]	-0.84 ± 0.08
NMECRVCGDKASGFHYGVHACEGCKGFFRRTIRMKLEYEKCERSQKIQKKNRNKCQYCRFQKCLALGMSHNAIRF [C45Q]	-0.884 ± 0.2
NMECRVCGDKASGFHYGVHACEGCKGFFRRTIRMKLEYEKCERSWKIQKKNRNKCQYCRFQKCLALGMSHNAIRF [C45W]	-0.864 ± 0.12
NMECRVCGDKASGFHYGVHACEGCKGFFRRTIRMKLEYEKCERSPKIQKKNRNKCQYCRFQKCLALGMSHNAIRF [C45P]	-0.876 ± 0.18
NMECRVCGDKASGFHYGVHACEGCKGFFRRTIRMKLEYEKCERSHKIQKKNRNKCQYCRFQKCLALGMSHNAIRF [C45H]	-0.218 ± 0.17
NMECRVCGDKASGFHYGVHACEGCKGFFRRTIRMKLEYEKCERSDKIQKKNRNKCQYCRFQKCLALGMSHNAIRF [C45D]	-1.01 ± 0.25
NMECRVCGDKASGFHYGVHACEGCKGFFRRTIRMKLEYEKCERSGKIQKKNRNKCQYCRFQKCLALGMSHNAIRF [C45G]	-0.787 ± 0.054
NMECRVCGDKASGFHYGVHACEGCKGFFRRTIRMKLEYEKCERSFKIQKKNRNKCQYCRFQKCLALGMSHNAIRF [C45F]	-0.647 ± 0.13
NMECRVCGDKASGFHYGVHACEGCKGFFRRTIRMKLEYEKCERSYKIQKKNRNKCQYCRFQKCLALGMSHNAIRF [C45Y]	-0.374 ± 0.11
NMECRVCGDKASGFHYGVHACEGCKGFFRRTIRMKLEYEKCERSRKIQKKNRNKCQYCRFQKCLALGMSHNAIRF [C45R]	-0.768 ± 0.061
NMECRVCGDKASGFHYGVHACEGCKGFFRRTIRMKLEYEKCERSNKIQKKNRNKCQYCRFQKCLALGMSHNAIRF [C45N]	-0.835 ± 0.22
NMECRVCGDKASGFHYGVHACEGCKGFFRRTIRMKLEYEKCERSSKIQKKNRNKCQYCRFQKCLALGMSHNAIRF [C45S]	-0.743 ± 0.095
NMECRVCGDKASGFHYGVHACEGCKGFFRRTIRMKLEYEKCERSKKIQKKNRNKCQYCRFQKCLALGMSHNAIRF [C45K]	-0.927 ± 0.17
NMECRVCGDKASGFHYGVHACEGCKGFFRRTIRMKLEYEKCERSIKIQKKNRNKCQYCRFQKCLALGMSHNAIRF [C45I]	-0.842 ± 0.23
NMECRVCGDKASGFHYGVHACEGCKGFFRRTIRMKLEYEKCERSTKIQKKNRNKCQYCRFQKCLALGMSHNAIRF [C45T]	-1 ± 0.17
